IntAct's records for PubMed 15214843

B1: Septin-5 (Homo sapiens), Q99719 (parent)
chain: MSTGLRYKSKLATPEDKQDIDKQYVGFATLPNQVHRKSVKKGFDFTLMVAGESGLGKSTLVHSLFLTDLYKDRKLLSAEERISQTVEILKHTVDIEEKGVKLKLTIVDTPGFGDAVNNTECWKPITDYVDQQFEQYFRDESGLNRKNIQDNRVHCCLYFISPFGHGLRPVDVGFMKALHEKVNIVPLIAKADCLVPSEIRKLKERIREEIDKFGIHVYQFPECDSDEDEDFKQQDRELKESAPFAVIGSNTVVEAKGQRVRGRLYPWGIVEVENQAHCDFVKLRNMLIRTHMHDLKDVTCDVHYENYRAHCIQQMTSKLTQDSRMESPIPILPLPTPDAETEKLIRMKDEELRRMQEMLQRMKQQMQDQ
partner: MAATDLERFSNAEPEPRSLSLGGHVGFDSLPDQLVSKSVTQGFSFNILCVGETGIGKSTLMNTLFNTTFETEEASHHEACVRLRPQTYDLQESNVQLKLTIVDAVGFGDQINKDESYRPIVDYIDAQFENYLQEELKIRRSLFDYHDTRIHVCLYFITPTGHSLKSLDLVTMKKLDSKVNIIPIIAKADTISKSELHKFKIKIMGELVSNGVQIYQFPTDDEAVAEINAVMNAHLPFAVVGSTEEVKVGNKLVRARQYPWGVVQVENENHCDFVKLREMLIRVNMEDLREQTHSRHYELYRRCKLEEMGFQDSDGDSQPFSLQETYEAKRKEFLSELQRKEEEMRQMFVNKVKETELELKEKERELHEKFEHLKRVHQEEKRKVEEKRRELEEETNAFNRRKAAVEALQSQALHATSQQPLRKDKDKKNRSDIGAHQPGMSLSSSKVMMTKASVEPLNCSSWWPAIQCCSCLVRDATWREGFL

Variants of: B1
Conditions: with sept8_human SEPTIN8, Q92599

effect of a mutation on the interaction	Variant
disrupting interaction strength	MSTGLRYKSKLATPEDKQDIDKQYVGFATLPNQVHRKSVKKGFDFTLMVAGESGLGKNTLVHSLFLTDLYKDRKLLSAEERISQTVEILKHTVDIEEKGVKLKLTIVDTPGFGDAVNNTECWKPITDYVDQQFEQYFRDESGLNRKNIQDNRVHCCLYFISPFGHGLRPVDVGFMKALHEKVNIVPLIAKADCLVPSEIRKLKERIREEIDKFGIHVYQFPECDSDEDEDFKQQDRELKESAPFAVIGSNTVVEAKGQRVRGRLYPWGIVEVENQAHCDFVKLRNMLIRTHMHDLKDVTCDVHYENYRAHCIQQMTSKLTQDSRMESPIPILPLPTPDAETEKLIRMKDEELRRMQEMLQRMKQQMQDQ [S58N]
with no effect	MSTGLRYKSKLATPEDKQDIDKQYVGFATLPNQVHRKAVKKGFDFTLMVAGESGLGKSTLVHSLFLTDLYKDRKLLSAEERISQTVEILKHTVDIEEKGVKLKLTIVDTPGFGDAVNNTECWKPITDYVDQQFEQYFRDESGLNRKNIQDNRVHCCLYFISPFGHGLRPVDVGFMKALHEKVNIVPLIAKADCLVPSEIRKLKERIREEIDKFGIHVYQFPECDSDEDEDFKQQDRELKESAPFAVIGSNTVVEAKGQRVRGRLYPWGIVEVENQAHCDFVKLRNMLIRTHMHDLKDVTCDVHYENYRAHCIQQMTSKLTQDSRMESPIPILPLPTPDAETEKLIRMKDEELRRMQEMLQRMKQQMQDQ [S38A]
with no effect	MSTGLRYKSKLATPEDKQDIDKQYVGFATLPNQVHRKSVAAGFDFTLMVAGESGLGKSTLVHSLFLTDLYKDRKLLSAEERISQTVEILKHTVDIEEKGVKLKLTIVDTPGFGDAVNNTECWKPITDYVDQQFEQYFRDESGLNRKNIQDNRVHCCLYFISPFGHGLRPVDVGFMKALHEKVNIVPLIAKADCLVPSEIRKLKERIREEIDKFGIHVYQFPECDSDEDEDFKQQDRELKESAPFAVIGSNTVVEAKGQRVRGRLYPWGIVEVENQAHCDFVKLRNMLIRTHMHDLKDVTCDVHYENYRAHCIQQMTSKLTQDSRMESPIPILPLPTPDAETEKLIRMKDEELRRMQEMLQRMKQQMQDQ [K40A;K41A]
